Laboratory results: patent EP4596582A1 (Sichuan Kelun-Biotech Biopharmaceutical Co., Ltd., dated 2025)

Experiments:
[1] = target: T1, human B7-H3-2Ig-His protein (human); assay: BLI (ForteBio), antibody captured on Protein A sensor, 1:1 global fit
T1 chain: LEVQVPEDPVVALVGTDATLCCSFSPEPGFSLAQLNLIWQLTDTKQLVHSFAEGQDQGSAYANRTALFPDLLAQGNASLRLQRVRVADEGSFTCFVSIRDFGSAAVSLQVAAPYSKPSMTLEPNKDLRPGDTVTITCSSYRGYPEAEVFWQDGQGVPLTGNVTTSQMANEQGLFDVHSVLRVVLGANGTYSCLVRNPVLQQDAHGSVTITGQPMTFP

[2] = target: T2, human B7-H3-4Ig-His protein (human, UniProt Q5ZPR3 29-466); assay: as above
T2 construct: extracellular domain; Made in HEK293-EBNA cells
T2 sequence: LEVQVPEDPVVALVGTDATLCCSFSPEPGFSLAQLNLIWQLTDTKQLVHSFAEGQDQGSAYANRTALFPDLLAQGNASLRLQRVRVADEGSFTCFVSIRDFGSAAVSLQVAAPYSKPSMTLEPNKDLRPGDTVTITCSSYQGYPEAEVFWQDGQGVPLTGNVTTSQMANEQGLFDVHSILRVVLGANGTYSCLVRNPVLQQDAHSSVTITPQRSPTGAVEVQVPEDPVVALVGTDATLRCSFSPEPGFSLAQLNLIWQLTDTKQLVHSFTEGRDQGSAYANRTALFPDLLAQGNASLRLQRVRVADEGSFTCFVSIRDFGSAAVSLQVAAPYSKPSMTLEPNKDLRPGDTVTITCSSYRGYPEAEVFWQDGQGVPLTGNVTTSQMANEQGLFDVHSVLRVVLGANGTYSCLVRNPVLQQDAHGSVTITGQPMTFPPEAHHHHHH

B1: anti-human-B7-H3 human antibody 2#8890 (antibody, human IgG1, kappa, V domains shown)
VH: QVQLQESGPGLVQPSGTLSLTCAVSGGSDSSTNWWTWVRQSPGQGLEWIGEISPIGFTSYSPSLRSRVTISVDKSKTQFSLKLSSVTAADTAVYYCARDRLYFAFWGQGTLVTVSS
VL: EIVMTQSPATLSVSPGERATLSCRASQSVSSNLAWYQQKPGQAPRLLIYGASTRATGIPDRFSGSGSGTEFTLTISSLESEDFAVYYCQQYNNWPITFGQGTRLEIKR
In the case of B1, the Kd [1] is reported as 18.3 nM and the Kd [2] is reported as 0.783 nM.
